The target of this assay is anti-TSLP-scFv-Fc-M4 (mutated recombinant antibody) (human). Description: BLI. (Biolayer interferometry detects binding as a change in optical thickness at a sensor tip.)

Regarding “thymic stromal lymphopoietin (TSLP), standard recombinant human TSLP protein (from UniProt Q969D9 29-159) (ligand)”, the fold change of affinity against scFv-Fc-84 was 10 fold.

Values taken from article PMC6947841.
